Laboratory results from article PMC11021452, “Exposing the molecular heterogeneity of glycosylated biotherapeutics” (Nature Communications, 2024).

B1: IL22-Fc fusion biotherapeutic (UTTR1147A) [modified: N-linked glycans with sialic acid; 8 N-linked glycosylation sites in the dimer (N21, N35, N64, N143 on each chain); N-linked glycans with sialic acid; 8 N-linked … (parent)
chain 1: APISSHCRLDKSNFQQPYITNRTFMLAKEASLADNNTDVRLIGEKLFHGVSMSERCYLMKQVLNFTLEEVLFPQSDRFQPYMQEVVPFLARLSNRLSTCHIEGDDLHIQRNVQKLKDTVKKLGESGEIKAIGELDLLFMSLRNACI
chain 2: HAPEDPSDLLQHVKFQSSNFENILTWDSGPEGTPDTVYSIEYKTYGERDWVAKKGCQRITRKSCNLTVETGNLTELYYARVTAVSAGGRSATKMTDRFSSLQHTTLKPPDVTCISKVRSIQMIVHPTPTPIRAGDGHRLTLEDIFHDLFYHLELQVNRTYQMHLGGKQREYEFFGLTPDTEFLGTIMICVPTWAKESAPYMCRVKTLPDRTWT

Variants of: B1
Assay: relative potency assay (method not named for this panel; measured in duplicate)
Settings: with IL-22 RA1 extracellular domain (ECD)

Row | Variant | ratio to parent
1 | chain 1 APISSHCRLDKSNFQQPYITNRTFMLAKEASLADQNTDVRLIGEKLFHGVSMSERCYLMKQVLNFTLEEVLFPQSDRFQPYMQEVVPFLARLSNRLSTCHIEGDDLHIQRNVQKLKDTVKKLGESGEIKAIGELDLLFMSLRNACI [chain 1 N35Q] | 1.54
2 | chain 1 APISSHCRLDKSNFQQPYITNRTFMLAKEASLADNNTDVRLIGEKLFHGVSMSERCYLMKQVLQFTLEEVLFPQSDRFQPYMQEVVPFLARLSNRLSTCHIEGDDLHIQRNVQKLKDTVKKLGESGEIKAIGELDLLFMSLRNACI [chain 1 N64Q] | 0.64
3 | chain 1 APISSHCRLDKSNFQQPYITNRTFMLAKEASLADNNTDVRLIGEKLFHGVSMSERCYLMKQVLNFTLEEVLFPQSDRFQPYMQEVVPFLARLSNRLSTCHIEGDDLHIQRNVQKLKDTVKKLGESGEIKAIGELDLLFMSLRQACI [chain 1 N143Q] | 0.83
